Laboratory results reported in publication PMC6135800, “STAT3-coordinated migration facilitates the dissemination of diffuse large B-cell lymphomas” (Nature Communications, 2018).

Molecular target: T1, FLAG-RhoGDI-γ (immobilized) (UniProt Q99819 1-225)
T1 construct: RhoGDIγ, full-length cDNA NM_001176 inserted into pFLAG-CMV2
T1 sequence (looked up): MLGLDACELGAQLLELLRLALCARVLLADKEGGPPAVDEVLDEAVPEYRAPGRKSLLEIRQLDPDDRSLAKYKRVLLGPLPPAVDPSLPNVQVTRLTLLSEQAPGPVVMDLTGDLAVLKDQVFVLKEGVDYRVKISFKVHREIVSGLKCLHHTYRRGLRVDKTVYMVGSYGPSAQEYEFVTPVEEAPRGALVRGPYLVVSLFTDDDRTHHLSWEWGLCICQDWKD
Assay: pull-down; competition assay: purified GST-RhoH and RhoA incubated with immobilized FLAG-RhoGDI-γ for 2 h; increasing doses of RhoH
Conditions: both partners purified

B1: GST-RhoH (natural protein, UniProt Q15669 1-191, looked up)
chain: MLSSIKCVLVGDSAVGKTSLLVRFTSETFPEAYKPTVYENTGVDVFMDGIQISLGLWDTAGNDAFRSIRPLSYQQADVVLMCYSVANHNSFLNLKNKWIGEIRSNLPCTPVLVVATQTDQREMGPHRASCVNAMEGKKLAQDVRAKGYLECSALSNRGVQQVFECAVRTAVNQARRRNRRRLFSINECKIF
notes: RhoH; the only GST vector named is pEBG-RhoH, made by inserting full-length cDNAs (RhoH: NM_001278369); also called GST-tagged RhoH; source: E. coli DH5α, IPTG induction, purified (glutathione-Sepharose, eluted with reduced glutathione)
binding result: binds
